In patent publication US10000775B2, “Biosynthesis of 1-undecene and related terminal olefins” (The Regents of the University of California, priority 2013, dated 2018):

Key:
[1] = Initial production rate determination under single turnover conditions; format: biochemical; details: single turnover condition
Procedure: To determine the initial rates of 1-alkene production under the single turnover conditions, the O2-saturated buffer solution (50 mM MES, pH 6.2, 100 mM NaCl) was mixed with an equal volume of an O2-free solution containing 50 mM MES buffer (pH 6.2), 100 mM NaCl, 200 μM (NH4)2Fe(SO4)2, 0.2-20 μM PFL_4321, and various concentrations of substrate (2-300 μM), so that the final mixture contained 50 mM MES buffer (pH 6.2), 100 mM NaCl, 0.1-10 μM PFL_4321, 100 μM (NH4)2Fe(SO4)2, and various concentrations of substrate (1-150 μM). The reactions were carried out in sealed GC vials and quenched by injecting 1 M NaOH at 2, 4, 6, 8, 10, 20, 30, 40, 50, 60 seconds. The productions of 1-alkenes were analyzed by SPME-GCMS analysis.

[2] = Enzyme recycling experiments; format: biochemical; details: for 1-undecene produced (activity) compared with the original PFL_4321: recycled after single turnover with EDTA, reconstituted with fresh Fe2+
Procedure: To recycle the PFL_4321, 1 mL of the oxygenated buffer solution (50 mM MES, pH 6.2, 100 mM NaCl) was mixed with 1 mL of an O2-free solution containing 50 mM MES buffer (pH 6.2), 100 mM NaCl, 200 μM PFL_4321, 1 mM (NH4)2Fe(SO4)2, 2 mM LA, so that the final mixture contained 50 mM MES buffer (pH 6.2), 100 mM NaCl, 100 μM PFL_4321, 0.5 mM (NH4)2Fe(SO4)2, and 1 mM LA. This original reaction was quenched by adding 10-fold excess of EDTA to iron. The mixture was desalted on a GE Disposable PD-10 column and incubated at 4° C. on a nutator for two hours to completely remove the residual 1-undecene in the solution. The recycled apo-PFL_4321 was concentrated by using Centrifugal Filter Units (Millipore) and subjected to a second enzymatic assay that contained 50 mM MES buffer (pH 6.2), 100 mM NaCl, 100 μM PFL_4321, 0.5 mM (NH4)2Fe(SO4)2, and 1 mM LA. To initiate the reaction, 100 μL of the oxygenated buffer solution (50 mM MES, pH 6.2, 100 mM NaCl) was mixed with 100 μL of an O2-free solution containing 50 mM MES buffer (pH 6.2), 100 mM NaCl, 200 μM PFL_4321, 1 mM (NH4)2Fe(SO4)2, 2 mM LA. The control group was set up under similar conditions except that the original apo-PFL_4321 which had not been used for any enzymatic reactions was used. The experimental group containing recycled PFL_4321 produced 80% of the 1-undecene compared with the control group that contained the original PFL_4321.

[3] = In vitro anaerobic enzymatic assays; format: biochemical
Procedure: FIG. 6 illustrates GC-MS detection of 1-undecene production by PFL_4321 in the aerobic/anaerobic assays. The anaerobic assay was performed by using the anaerobically purified enzyme and degassed reagents, adding glucose oxidase/glucose/catalase, and conducting the experiment in an anaerobic chamber with ppm O2<0.7. The control aerobic assay was performed by using a similar reaction mixture under ambient air conditions and omitting glucose oxidase.
All of the reagents were bubbled with nitrogen gas and equilibrated in the anaerobic chamber overnight before use. E. coli BL21 Gold (DE3, pZR60_HRV3c) was grown, harvested, and lysed as mentioned above. The insoluble fraction was removed by centrifugation, and the soluble proteins were incubated with 1 mL of Ni-NTA beads (Qiagen) on a nutator at 4° C. for 1 hr. The proteins were then moved into the anaerobic chamber, loaded onto a gravity flow column, washed with washing buffer (50 mM imidazole, 20 mM Tris, 300 mM NaCl, pH 8.5), and eluted with eluting buffer (300 mM imidazole, 20 mM Tris, 300 mM NaCl, pH 8.5). Purified proteins were exchanged into 20 mM Tris (pH 8.5) and 300 mM NaCl by passing through a desalting column (GE Disposable PD-10), and then concentrated using Amicon Centrifugal Filter Units. The protein solution was equilibrated in the anaerobic chamber on a Thermomixer at 4° C. overnight. […]

[4] = test system: Saccharomyces cerevisiae S288c; assay: Small-scale 1-alkene production in S. cerevisiae; format: cell-based; details: expression of PFL_4321, 30° C., 36 hours
Procedure: FIG. 25 illustrates GC-MS analysis of 1-undecene and nonene productions from Saccharomyces cerevisiae S288c (pESC_URA_PFL_4321). Saccharomyces cerevisiae S288c (pESC_URA_PFL_4321) was cultured in YPD media in sealed headspace vial at 30° C. for 36 hours before sampling using SPME-GCMS method.
PFL_4321 was PCR-amplified by using pESC-und-F/-R as primers (Table 1) and pZR59 as template, digested with BamH1/Sal1, and ligated into the pESC-URA vector to yield pESC-PFL_4321. S. cerevisiae was then transformed with pESC-PFL_4321 using the lithium acetate method outlined in the pESC-URA manual (Stratagene). Transformants were selected by […]. The cultures were grown in yeast-peptone media supplemented with 1% galactose in headspace GC vials at 30° C. for 36 hr before SPME-GCMS analysis.

B1: PFL_4321: protein of 261 amino acids from Pseudomonas fluorescens Pf-5; non-heme iron (II)-dependent enzyme converting medium-chain fatty acids into terminal olefins (protein, listed as Pseudomonas fluorescens)
chain: MIDTFSRTGPLMEAASYPAWTQQLIQDCSESKRRVVEHELYQRMRDNKLSAKVMRQYLIGGWPVVEQFALYMAQNLTKTRFARHPGEDMARRWLMRNIRVELNHADYWVHWSRAHGVTLEDLQAQQVPPELHALSHWCWHTSSADSLIVAIAATNYAIEGATGEWSALVCSNGIYAAAFPEEDRKRAMKWLKMHAQYDDAHPWEALEIIVTLAGLNPTKALQAELRQAICKSYDYMYLFLERCMQQEKTAVTRERLALAEG
[1]
  initial rate of 1-undecene production: 0.06±0.002 mol 1-undecene/(mol PFL_4321-Fe(II) second)
[2]; EDTA omitted, desalted
  1-undecene production by recycled enzyme: failed to catalyze the reaction
[2]; listed as apo-PFL_4321
  1-undecene produced (activity) compared with the original PFL_4321: over 80%
[2]; listed as recycled PFL_4321
  1-undecene produced (activity) compared with the original PFL_4321: 80%
[3]; anaerobic
  1-undecene production in anaerobic enzymatic assays: nearly abolished
[3]; anaerobic versus aerobic
  decrease of 1-undecene production in anaerobic enzymatic assays: more than 150 fold
[4]
  production of 1-alkenes in Saccharomyces cerevisiae: led to the production of 1-undecene and 1-nonene in comparable amounts
